Targets include EphB4 (h) (human) (UniProt P54760); cKit(D816H) (h) (human) (UniProt P10721); KDR (h) (human) (UniProt P35968); mTOR (h) (human) (UniProt P42345); CK1γ2 (h) (human) (UniProt P78368); MSK2 (h) (human) (UniProt O75676); VRK2 (h) (human) (UniProt Q86Y07); MKK6 (h) (human) (UniProt P52564).
Common to all, as to test: cell-based or functional assay
The target in a further test is T1, PKCζ (h) (human) (UniProt Q05513).
T1 sequence (looked up): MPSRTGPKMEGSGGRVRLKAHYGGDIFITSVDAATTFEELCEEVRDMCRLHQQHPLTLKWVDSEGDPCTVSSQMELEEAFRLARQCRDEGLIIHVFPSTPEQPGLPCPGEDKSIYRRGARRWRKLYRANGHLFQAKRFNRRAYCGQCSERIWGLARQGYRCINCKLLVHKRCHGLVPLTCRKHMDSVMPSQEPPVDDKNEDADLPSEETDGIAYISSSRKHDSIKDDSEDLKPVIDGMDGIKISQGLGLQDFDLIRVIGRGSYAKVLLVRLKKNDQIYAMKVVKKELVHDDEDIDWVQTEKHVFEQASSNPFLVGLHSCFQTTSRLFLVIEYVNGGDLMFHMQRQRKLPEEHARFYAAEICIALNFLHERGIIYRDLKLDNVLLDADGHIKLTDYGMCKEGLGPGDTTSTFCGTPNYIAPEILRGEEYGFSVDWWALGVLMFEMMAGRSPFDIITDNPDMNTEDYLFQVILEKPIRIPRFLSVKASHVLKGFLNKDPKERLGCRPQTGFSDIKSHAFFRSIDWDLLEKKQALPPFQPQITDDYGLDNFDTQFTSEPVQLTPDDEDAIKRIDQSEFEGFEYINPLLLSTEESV

Another test deals with T2, Haspin (h) (human) (UniProt Q8TF76).
T2 sequence (looked up): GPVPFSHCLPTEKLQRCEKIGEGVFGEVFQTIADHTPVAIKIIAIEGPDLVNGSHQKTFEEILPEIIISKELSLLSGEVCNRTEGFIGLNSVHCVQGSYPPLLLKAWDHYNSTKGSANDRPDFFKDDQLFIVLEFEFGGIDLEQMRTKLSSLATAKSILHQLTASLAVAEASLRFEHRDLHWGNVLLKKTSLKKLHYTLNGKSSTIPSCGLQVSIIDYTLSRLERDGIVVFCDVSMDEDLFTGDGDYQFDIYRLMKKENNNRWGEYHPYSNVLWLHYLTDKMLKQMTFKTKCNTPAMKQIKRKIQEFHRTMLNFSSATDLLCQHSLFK

Another test addresses T3, EphA1 (h) (human) (UniProt P21709).
T3 sequence (looked up): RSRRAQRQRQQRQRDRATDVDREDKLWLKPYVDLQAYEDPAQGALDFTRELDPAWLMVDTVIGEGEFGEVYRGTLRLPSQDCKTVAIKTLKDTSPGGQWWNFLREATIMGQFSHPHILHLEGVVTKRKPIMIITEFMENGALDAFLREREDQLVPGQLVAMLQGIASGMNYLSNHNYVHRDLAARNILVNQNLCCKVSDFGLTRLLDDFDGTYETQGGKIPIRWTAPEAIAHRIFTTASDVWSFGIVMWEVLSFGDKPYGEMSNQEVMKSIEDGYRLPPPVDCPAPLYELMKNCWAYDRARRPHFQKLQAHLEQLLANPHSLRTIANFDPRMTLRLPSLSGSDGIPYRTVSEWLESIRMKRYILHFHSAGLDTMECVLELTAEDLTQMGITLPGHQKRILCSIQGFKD

The target in another test is T4, GCK (h) (human) (UniProt Q12851).
T4 sequence (looked up): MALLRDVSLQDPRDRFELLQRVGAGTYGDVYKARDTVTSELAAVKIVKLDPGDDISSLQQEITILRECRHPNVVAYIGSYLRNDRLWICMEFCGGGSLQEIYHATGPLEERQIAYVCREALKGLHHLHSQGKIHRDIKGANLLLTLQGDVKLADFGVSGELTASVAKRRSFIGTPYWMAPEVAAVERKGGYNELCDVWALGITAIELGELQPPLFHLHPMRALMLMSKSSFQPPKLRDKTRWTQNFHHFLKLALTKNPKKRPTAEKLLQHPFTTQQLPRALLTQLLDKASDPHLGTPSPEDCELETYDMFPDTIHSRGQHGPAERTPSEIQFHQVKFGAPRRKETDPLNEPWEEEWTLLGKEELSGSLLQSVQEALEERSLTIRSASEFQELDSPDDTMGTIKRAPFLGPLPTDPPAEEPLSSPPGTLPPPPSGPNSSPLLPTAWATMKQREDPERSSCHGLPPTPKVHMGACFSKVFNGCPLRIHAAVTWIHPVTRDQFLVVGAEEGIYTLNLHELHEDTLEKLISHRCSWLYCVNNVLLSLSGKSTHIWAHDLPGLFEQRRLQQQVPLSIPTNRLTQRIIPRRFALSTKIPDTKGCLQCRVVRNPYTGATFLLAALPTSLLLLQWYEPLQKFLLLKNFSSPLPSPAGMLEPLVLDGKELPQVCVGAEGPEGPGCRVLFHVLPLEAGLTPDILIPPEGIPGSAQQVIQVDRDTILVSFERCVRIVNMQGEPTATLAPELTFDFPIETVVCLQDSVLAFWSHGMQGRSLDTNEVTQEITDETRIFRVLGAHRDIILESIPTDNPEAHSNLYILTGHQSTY

Another test addresses T5, Fms(Y969C) (h) (human) (UniProt P07333).
T5 sequence (looked up): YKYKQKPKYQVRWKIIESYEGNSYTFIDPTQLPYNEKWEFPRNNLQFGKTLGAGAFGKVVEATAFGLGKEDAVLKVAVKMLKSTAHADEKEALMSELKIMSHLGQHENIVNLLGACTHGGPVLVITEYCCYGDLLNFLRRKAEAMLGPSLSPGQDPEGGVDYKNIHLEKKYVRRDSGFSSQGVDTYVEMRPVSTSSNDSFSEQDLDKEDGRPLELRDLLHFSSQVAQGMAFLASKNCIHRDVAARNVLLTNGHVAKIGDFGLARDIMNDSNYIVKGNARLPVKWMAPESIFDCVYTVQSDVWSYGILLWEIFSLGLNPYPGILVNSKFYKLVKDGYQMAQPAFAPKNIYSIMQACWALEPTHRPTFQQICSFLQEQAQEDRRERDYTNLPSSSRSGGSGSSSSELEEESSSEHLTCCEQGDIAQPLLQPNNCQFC

Sequence of EphB4 (h) (human) (P54760 561-987 limits assumed): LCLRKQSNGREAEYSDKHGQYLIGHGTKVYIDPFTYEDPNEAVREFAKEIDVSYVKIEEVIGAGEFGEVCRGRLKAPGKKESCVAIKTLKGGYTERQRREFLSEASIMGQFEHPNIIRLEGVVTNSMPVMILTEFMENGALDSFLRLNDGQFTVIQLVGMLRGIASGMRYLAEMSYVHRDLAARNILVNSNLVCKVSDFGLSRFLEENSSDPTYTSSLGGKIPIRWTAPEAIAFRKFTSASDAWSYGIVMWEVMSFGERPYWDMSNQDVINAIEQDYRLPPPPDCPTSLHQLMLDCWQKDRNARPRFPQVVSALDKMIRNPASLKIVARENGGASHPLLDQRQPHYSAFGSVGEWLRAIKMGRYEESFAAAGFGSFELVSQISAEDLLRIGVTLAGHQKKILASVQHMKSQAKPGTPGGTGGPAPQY
Sequence of mTOR (h) (human) (P42345 1362-2549 limits assumed): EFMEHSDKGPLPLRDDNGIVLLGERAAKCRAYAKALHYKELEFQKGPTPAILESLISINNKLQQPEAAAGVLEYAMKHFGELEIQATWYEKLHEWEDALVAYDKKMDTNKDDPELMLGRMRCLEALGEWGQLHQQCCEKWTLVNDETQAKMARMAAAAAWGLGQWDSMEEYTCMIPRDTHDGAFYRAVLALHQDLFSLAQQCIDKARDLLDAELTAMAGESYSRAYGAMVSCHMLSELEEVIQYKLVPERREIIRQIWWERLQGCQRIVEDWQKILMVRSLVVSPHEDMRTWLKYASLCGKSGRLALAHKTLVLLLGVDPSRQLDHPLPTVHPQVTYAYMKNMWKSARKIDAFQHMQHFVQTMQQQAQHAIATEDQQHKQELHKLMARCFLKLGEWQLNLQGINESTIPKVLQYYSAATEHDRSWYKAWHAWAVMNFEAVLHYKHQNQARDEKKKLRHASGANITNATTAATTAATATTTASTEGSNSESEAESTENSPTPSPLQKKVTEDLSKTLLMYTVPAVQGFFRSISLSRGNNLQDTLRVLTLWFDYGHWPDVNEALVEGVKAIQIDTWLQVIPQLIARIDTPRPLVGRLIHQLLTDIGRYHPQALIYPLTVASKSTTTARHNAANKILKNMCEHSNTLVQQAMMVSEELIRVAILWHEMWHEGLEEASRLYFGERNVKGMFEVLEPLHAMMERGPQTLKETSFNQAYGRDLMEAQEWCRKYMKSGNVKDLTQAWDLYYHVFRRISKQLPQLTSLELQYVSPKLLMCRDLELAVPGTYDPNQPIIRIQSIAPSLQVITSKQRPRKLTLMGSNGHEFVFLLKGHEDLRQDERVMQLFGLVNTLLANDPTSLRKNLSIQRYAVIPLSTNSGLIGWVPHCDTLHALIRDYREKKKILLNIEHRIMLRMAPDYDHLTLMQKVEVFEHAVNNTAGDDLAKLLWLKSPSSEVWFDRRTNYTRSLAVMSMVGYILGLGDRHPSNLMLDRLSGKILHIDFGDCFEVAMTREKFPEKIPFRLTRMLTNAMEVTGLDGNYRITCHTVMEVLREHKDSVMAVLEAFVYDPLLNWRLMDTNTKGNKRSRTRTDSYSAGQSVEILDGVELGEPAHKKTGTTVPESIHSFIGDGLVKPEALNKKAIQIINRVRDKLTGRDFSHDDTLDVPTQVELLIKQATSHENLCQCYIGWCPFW
Sequence of VRK2 (h) (human) (Q86Y07 whole entry): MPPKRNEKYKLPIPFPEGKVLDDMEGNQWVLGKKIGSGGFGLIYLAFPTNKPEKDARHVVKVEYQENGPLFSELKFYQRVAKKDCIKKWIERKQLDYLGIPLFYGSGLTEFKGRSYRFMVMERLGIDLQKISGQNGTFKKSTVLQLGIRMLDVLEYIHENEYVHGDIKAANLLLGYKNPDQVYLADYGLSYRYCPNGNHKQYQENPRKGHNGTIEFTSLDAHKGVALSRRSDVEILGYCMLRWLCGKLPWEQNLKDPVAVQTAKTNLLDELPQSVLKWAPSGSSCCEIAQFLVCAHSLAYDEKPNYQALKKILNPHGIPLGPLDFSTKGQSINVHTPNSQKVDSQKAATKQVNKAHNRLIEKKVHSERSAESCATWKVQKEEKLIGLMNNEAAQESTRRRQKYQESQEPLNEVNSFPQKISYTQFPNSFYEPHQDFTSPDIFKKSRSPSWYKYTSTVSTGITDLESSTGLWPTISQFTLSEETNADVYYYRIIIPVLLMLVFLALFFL
Sequence of cKit(D816H) (h) (human) (P10721 544-976 D816H): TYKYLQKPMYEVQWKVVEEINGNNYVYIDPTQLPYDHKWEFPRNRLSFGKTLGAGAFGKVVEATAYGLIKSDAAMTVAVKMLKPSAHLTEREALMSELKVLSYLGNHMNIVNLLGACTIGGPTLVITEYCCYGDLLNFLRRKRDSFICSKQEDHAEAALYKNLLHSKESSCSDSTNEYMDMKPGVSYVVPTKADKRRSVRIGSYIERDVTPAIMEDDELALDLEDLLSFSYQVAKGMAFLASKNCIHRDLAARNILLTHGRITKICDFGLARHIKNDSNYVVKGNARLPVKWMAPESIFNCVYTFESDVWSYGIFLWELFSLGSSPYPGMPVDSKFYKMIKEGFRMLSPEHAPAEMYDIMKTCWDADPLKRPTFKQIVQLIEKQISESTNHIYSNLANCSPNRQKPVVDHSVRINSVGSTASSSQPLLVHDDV

Take MMI-0300 (peptide): the % activity at 100 µM is 81% with PKCζ (h) (human); 48% with Haspin (h) (human); 44% with EphB4 (h) (human); 126% in the test with cKit(D816H) (h) (human); 101% in the test with KDR (h) (human); 91% with mTOR (h) (human). The % activity at 100 µM turned out to be 123% with CK1γ2 (h) (human); 56% with MSK2 (h) (human); 161% in the test with VRK2 (h) (human); 73% with EphA1 (h) (human); 70% with GCK (h) (human); 48% in the test with MKK6 (h) (human). For the same substance, the % activity at 100 µM with Fms(Y969C) (h) (human) amounted to 72%.
